The numbers were not newly measured in paper PMC8760628, which cites them from elsewhere.

In this series the target is IL-18 mature (Homo sapiens) (UniProt Q14116).
Sequence of IL-18 mature (Homo sapiens) (Q14116 37-193): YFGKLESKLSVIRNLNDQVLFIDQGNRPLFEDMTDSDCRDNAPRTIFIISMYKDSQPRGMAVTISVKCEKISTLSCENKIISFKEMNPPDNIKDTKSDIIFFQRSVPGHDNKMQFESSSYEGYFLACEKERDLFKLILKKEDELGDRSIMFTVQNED

Sequence of IL-18BP (O95998 31-194): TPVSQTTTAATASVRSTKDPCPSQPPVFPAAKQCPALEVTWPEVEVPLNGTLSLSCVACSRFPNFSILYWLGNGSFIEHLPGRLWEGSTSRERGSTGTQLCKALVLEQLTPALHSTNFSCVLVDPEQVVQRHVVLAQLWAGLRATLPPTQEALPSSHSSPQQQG

For IL-18BP (from UniProt O95998), the Kd was 0.5 nM.

Broadly, the Kd is the free concentration of one partner at which half of the binding sites on the other are occupied at equilibrium, for simple one-to-one binding.
